Results reported in publication PMC7291361 (ACS infectious diseases, 2020).

Target: H4 NB-10 HA full length soluble ectodomain (FLsE) (Influenza A virus A/American black …, UniProt M1UPL4, strain)
Assay: ELISA

B1: K03.12 IgG (antibody, V domains shown)
VH: QVQLVQSGAEVKKPGASVKVSCKTSGYTFTAYYLHWVRQAPGQGFEWMAWINPNTGDTNYAQKFQGRVTLSRDTSITTAYMELTRLRSDDTAVYYCAKDLTLMYVFDSGWARGAHDYYGMDVWGQGTTVAVSG
VL: PSALTQPASVSGSPGQSVTISCTGTNSDVGTFDLVSWYQQYPGKAPKLIIYEGSRRPSGVSDRFSGSKSGNTASLTISGLQAEDEADYYCSSYAGSVVFGGGTKLTVL
**Q.** Does B1 bind?
**A.** no binding (tested: 1 μM IgG)
